Key:
BBCEC monolayers [1] = assay: Transcytosis across BBCEC monolayers (in vitro BBB model); format: cell-based, bovine
Excerpt: FIG. 10 assesses the ability of several agents to interfere with p97 transyctosis. FIG. 10a, transcytosis of I125-P97 was compared in the presence of cold p97 (5 micromolar), Lf (5 micromolar), and Tf (5 micromolar). […] FIG. 10c, RAP, a known poly-peptide inhibitor of the LDL-Receptor family was applied to the cells (25 micrograms/ml).
(§1) FIG. 11 examines the accumulation and transcytosis of p97. FIG. 11a, of [^125I]-p97, [^125I]-BSA and [^125I]-holo-transferrin one hour after i.v. injection. The radioactivity in brain was compared between the three compounds. (n=3); FIG. 11b, Accumulation of p97 and transferrin into the mouse brain parenchyma. In situ brain perfusion was performed with human [^125I]-p97 or [^125I]-holo-transferrin at a final concentration of 10 nM via a catheter inserted in the right common carotid artery. The volume of distribution (VD) of [^125I]-proteins were obtained in the whole brain homogenate (white bars), in brain capillaries (solid bars) and in brain parenchyma (hatched bars) after isolation of the right hemisphere and capillary depletion. Results were obtained for p97 (n=10) and for holo-transferrin (n=6); FIG. 11c, Transcytosis of p97 across BBCEC monolayers. Transcytosis experiments were performed 37° C. (open circles) and 4° C. (closed circles) with BBCEC monolayers. [^125I]-p97 (1 mg/ml) was added to the upper side of the cell-covered filter. One representative experiment is shown (n=4); FIG. 11d, Preferential transport of p97 across the BBCEC monolayers. Apical-to-basal and basal-to-apical transport of [^125I]-p97 (25 nM) was measured for 2 hrs at 37° C. At the end of the experiment, [^125I]-p97 was assessed in the lower or upper chambers of each well by TCA precipitation (n=4).
FIG. 13 illustrates the transcytosis and accumulation of p97 and transferrin in BBCEC monolayers. FIG. 13a, Transcytosis experiments were performed at 37° C. (solid bars) or 4° C. (white bars). [^125I]-p97 or bovine [^125I]-holo-transferrin (1 mg/ml) was added to the upper side of the cell-covered filter. At the end of the experiment, radiolabelled proteins were measured in the lower chamber of each well by TCA precipitation (n=4). Controls were also performed at 37° C. with denatured [^125I]-p97 or bovine [^125I]-holo-transferrin boiled for 30 min (grey bars) (n=2); FIG. 13b, Biospecific interaction analysis was performed with native or boiled p97 for the indicated times. MAb L235 (5 μg) was immobilized on a sensor chip (SM5) using standard procedures incorporating NHS, EDC and ethanolamine. Native and boiled p97 (5 to 30 min) diluted at 1 mg/ml in Ringer/Hepes was cooled and injected into the BIAcore. The surface plasmon resonance response obtained for native p97 and boiled p97 was plotted (in relative units (RU)) as a function of time; FIG. 13c, The accumulation of both proteins into BBEC cells were also measured. Briefly, after incubation at 37° C. (solid bars) or 4° C. (white bars) with either [^125I]-protein, cells were washed four times with cold PBS. Accumulation of both denatured proteins (grey bars) was also measured at 37° C. Filters were then removed, and the radioactivity associated with the cells was quantified (n=3).
FIG. 14 illustrates the stability of p97 and integrity of the BBCEC monolayers following p97 transcytosis. FIG. 14a, Transcytosis experiments were performed at 37° C. and 4° C. by adding p97 (1 mg/ml) to the upper compartment. At the end of the experiment, 50 μl from each lower chamber was used for SDS-polyacrylamide gel electrophoresis. After electrophoresis, the gels were stained with Coomassie Blue. A standard curve was also made with known amounts of recombinant p97 (0-2 μg); FIG. 14b. The gels were dried and scanned to quantify the amount of intact p97 that crossed the BBCEC monolayers at 37° C. and 4° C. (n=3); FIG. 14c, Effect of p97 on sucrose permeability of BBCE cell monolayers co-cultured with astrocytes. […]

BBCEC monolayers [2] = assay: Accumulation of ligands in BBCEC monolayers; format: cell-based, bovine; conditions: FIG. 7
Description: FIG. 7 illustrates the results of experiments where the ligands p97, Lf and Tf were heated or not heated prior to the binding study. In all cases, binding experiments were conducted in the transwell apparatus as described previously, with the exception that binding was conducted at either 4° C. or at 37° C. For the 37° C. trial, a separate experiment was conducted where the ligand was boiled for 30 mins then rapidly cooled prior to administration on the transwell plates.
FIG. 13 illustrates the transcytosis and accumulation of p97 and transferrin in BBCEC monolayers. FIG. 13a, Transcytosis experiments were performed at 37° C. (solid bars) or 4° C. (white bars). [^125I]-p97 or bovine [^125I]-holo-transferrin (1 mg/ml) was added to the upper side of the cell-covered filter. At the end of the experiment, radiolabelled proteins were measured in the lower chamber of each well by TCA precipitation (n=4). […] The surface plasmon resonance response obtained for native p97 and boiled p97 was plotted (in relative units (RU)) as a function of time; FIG. 13c, The accumulation of both proteins into BBEC cells were also measured. […] Accumulation of both denatured proteins (grey bars) was also measured at 37° C. Filters were then removed, and the radioactivity associated with the cells was quantified (n=3). […]

[3] = In situ brain perfusion with capillary depletion; format: in vivo; conditions: mice, 10 min perfusion, 10 nM [125I]-protein (FIG. 11b)
Description: as §1, with “[^125I]-p97 (1 mg/ml) was added to the upper side of the cell-covered filter. One representative experiment is shown (n=4); FIG. 11d, Preferential transport of p97 across the BBCEC monolayers.” left out
A. Brain uptake and in situ brain perfusion. […] The serum and brain samples were collected and the levels of radioactivity were measured. […]

With “transferrin: transferrin (Tf), iron-binding serum protein used as comparator and competitor” the “Effect of heat-denaturation on passage through BBCEC monolayers” value (BBCEC monolayers [1]; boiled 30 min, 37° C. (FIG. 13a)) was “reduced the passage”, the “Effect on transcytosis of 125I-p97” value (BBCEC monolayers [1]; competitor 5 micromolar (FIG. 10a, 10b)) was “only the cold p97 successfully reduced” and the “Accumulation in BBB model cells” value (BBCEC monolayers [2]) was “very little accumulation”. The “Apparent VD in the brain parenchyma” value [3] was 2.4 ml/100 g.

Reference: patent US7977317B2, “Compositions and methods for modulating blood-brain barrier transport” (Raptor Pharmaceutical Inc., priority 2001, dated 2011)
